The values that follow come from paper PMC5740674 (Proceedings of the National Academy of Sciences of the …, 2017).

B3: Mis12–Nnf1 complex (full-length Mis12 and full-length Nnf1) (complex, S. pombe)
chain 1: MLVELLEFTPLSFIDDVINITNQLLYKGVNGVDKAFSQTRFAKKAPQEIEEGLHKFEVLFESVVDRYYDGFEVYTLRNIFSYPPELKGYMRTFGKDVDYSITTEQDAAMDQAIQEAAEKLVVKMQLRRDLRMRLSRKREKKTEIEKHLERISFLNKVPENWQVTLPETTDFLLDQLGNLQHAVKRVVEASPTVHSREVDERITYLEKGYERLSNPIDQQKDFWSHHLSKLESTANTETANNIHKLLLSSEKDVGHTDEP
chain 2: MTSRKEQLDAFLSRTLSETIAHIPLEKFAQCFPSMKKGKVIAVIHQQLIEFFEKSCKQEYANLIKERDLNKKLDMLDECIHDAEFRKLHGESEVDISNKQPQEILKAHLYSHKRELLDKLNQDLLDIDKENEGLSTQIAGEEKATEDCISRMQSLIQKLEKTVYGMNEKNLAKEAHDTLNDLLPYIQNPSSTWTNALNEQGNIER

Square brackets hold non-standard residues; d marks the D form. Ends that are not written are not given here. pT = C[C@@H](OP(=O)(O)O)[C@H](N)C(=O)O

The target in test [1] is B3. The test can be described thus: ITC.
Test [2] concerns the target T1, Mis12, full length (subunit of the Mis12–Nnf1 complex) (S. pombe, UniProt Q9Y738 1-259).
T1 sequence (looked up): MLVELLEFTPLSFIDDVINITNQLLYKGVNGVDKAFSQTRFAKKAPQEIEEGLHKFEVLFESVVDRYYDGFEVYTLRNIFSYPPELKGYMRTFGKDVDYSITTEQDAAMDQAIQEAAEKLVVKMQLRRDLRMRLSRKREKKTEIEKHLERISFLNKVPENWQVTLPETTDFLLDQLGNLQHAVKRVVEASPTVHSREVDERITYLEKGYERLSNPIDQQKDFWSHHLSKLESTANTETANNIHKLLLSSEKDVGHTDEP
The test can be described thus: SEC-MALS.

Test [3] concerns the target B3. The test can be described thus: SEC-MALS.
In test [4] the target is T2, Dsn1^DD–Nsl1 subcomplex (Dsn1 S68D S77D) (S. pombe, UniProt Q9UUB5 1-329; Q9P6M3 1-210, S68D | S77D).
T2 sequence (looked up) 1: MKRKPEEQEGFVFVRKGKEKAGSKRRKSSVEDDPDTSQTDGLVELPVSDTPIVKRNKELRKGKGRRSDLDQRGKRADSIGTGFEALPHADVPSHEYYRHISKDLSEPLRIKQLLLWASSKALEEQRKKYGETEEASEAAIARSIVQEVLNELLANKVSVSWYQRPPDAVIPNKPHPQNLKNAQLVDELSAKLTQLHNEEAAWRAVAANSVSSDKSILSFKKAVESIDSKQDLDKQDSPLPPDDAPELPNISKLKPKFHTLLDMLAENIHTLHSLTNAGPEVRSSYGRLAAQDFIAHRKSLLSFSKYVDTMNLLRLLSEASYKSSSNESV
T2 sequence (looked up) 2: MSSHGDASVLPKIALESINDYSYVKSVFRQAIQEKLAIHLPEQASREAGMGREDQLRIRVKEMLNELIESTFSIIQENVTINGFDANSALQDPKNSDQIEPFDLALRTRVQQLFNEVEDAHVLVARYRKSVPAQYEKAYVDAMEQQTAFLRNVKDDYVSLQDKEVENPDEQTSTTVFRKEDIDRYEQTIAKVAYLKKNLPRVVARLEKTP
The test can be described thus: SEC-MALS. A general note: In gel filtration, larger molecules generally elute earlier.

Test [5] concerns the target T3, GST-Cnp3(fl), full-length Cnp3 (S. pombe, UniProt Q9USR9 1-643).
T3 sequence (looked up): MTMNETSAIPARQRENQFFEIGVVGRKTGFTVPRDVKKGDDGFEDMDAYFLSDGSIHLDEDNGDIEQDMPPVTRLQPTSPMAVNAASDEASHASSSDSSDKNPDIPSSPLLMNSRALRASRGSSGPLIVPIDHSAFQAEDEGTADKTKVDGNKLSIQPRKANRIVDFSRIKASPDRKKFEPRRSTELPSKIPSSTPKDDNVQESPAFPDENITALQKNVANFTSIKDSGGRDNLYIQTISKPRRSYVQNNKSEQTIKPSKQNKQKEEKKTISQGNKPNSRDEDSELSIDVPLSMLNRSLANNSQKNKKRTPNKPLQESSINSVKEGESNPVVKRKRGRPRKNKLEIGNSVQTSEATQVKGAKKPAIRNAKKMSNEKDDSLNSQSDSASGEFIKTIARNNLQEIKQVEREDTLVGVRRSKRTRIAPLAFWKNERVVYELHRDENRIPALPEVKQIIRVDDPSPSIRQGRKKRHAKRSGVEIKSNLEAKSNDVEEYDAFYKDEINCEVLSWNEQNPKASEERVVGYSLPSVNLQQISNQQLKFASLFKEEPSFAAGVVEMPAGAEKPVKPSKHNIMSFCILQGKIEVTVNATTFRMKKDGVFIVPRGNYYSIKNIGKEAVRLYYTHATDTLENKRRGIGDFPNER
The test can be described thus: pull-down.

Test [6] addresses B3. The test is described as follows: pull-down.

Take RK[pT]GFTVPRDVKKGDDGFEDMDAYFLS (peptide, UniProt Q9USR9 26-52, looked up) [Cnp3(26–52)^pT28 peptide]: binding in test [1] was characterised by a dissociation constant (Kd) of 92 µM. Consider RKTGFTVPRDVKKGDDGFEDMDAYFLS (peptide, UniProt Q9USR9 26-52, looked up) [Cnp3(26–52) peptide], for which the Kd (commonly the free concentration of one partner at which half of the binding sites on the other are occupied at equilibrium, for simple one-to-one binding) in test [1] came to 12.6 µM. Against the preceding molecule, the Kd is about 7.3-fold lower.

B1: Nnf1, full length, untagged (subunit of the Mis12–Nnf1 complex) (natural protein, S. pombe, UniProt Q09858 1-205, looked up)
chain: MTSRKEQLDAFLSRTLSETIAHIPLEKFAQCFPSMKKGKVIAVIHQQLIEFFEKSCKQEYANLIKERDLNKKLDMLDECIHDAEFRKLHGESEVDISNKQPQEILKAHLYSHKRELLDKLNQDLLDIDKENEGLSTQIAGEEKATEDCISRMQSLIQKLEKTVYGMNEKNLAKEAHDTLNDLLPYIQNPSSTWTNALNEQGNIER
For B1, the stoichiometry N – broadly, the number of molecules, sites or subunits per partner or assembly – in test [2] came to 1.

B2: Dsn1–Nsl1 subcomplex (complex, S. pombe)
chain 1: MKRKPEEQEGFVFVRKGKEKAGSKRRKSSVEDDPDTSQTDGLVELPVSDTPIVKRNKELRKGKGRRSSLDQRGKRASSIGTGFEALPHADVPSHEYYRHISKDLSEPLRIKQLLLWASSKALEEQRKKYGETEEASEAAIARSIVQEVLNELLANKVSVSWYQRPPDAVIPNKPHPQNLKNAQLVDELSAKLTQLHNEEAAWRAVAANSVSSDKSILSFKKAVESIDSKQDLDKQDSPLPPDDAPELPNISKLKPKFHTLLDMLAENIHTLHSLTNAGPEVRSSYGRLAAQDFIAHRKSLLSFSKYVDTMNLLRLLSEASYKSSSNESV
chain 2: MSSHGDASVLPKIALESINDYSYVKSVFRQAIQEKLAIHLPEQASREAGMGREDQLRIRVKEMLNELIESTFSIIQENVTINGFDANSALQDPKNSDQIEPFDLALRTRVQQLFNEVEDAHVLVARYRKSVPAQYEKAYVDAMEQQTAFLRNVKDDYVSLQDKEVENPDEQTSTTVFRKEDIDRYEQTIAKVAYLKKNLPRVVARLEKTP
B2: the “stoichiometry N” value in test [3] was found to be 1. Turning to B3, the binding result in test [4] and in test [5] was “binds” each time.

B4: GST-Cnp3(1–60)^WT (domain or fragment, S. pombe, UniProt Q9USR9 1-60, looked up)
chain: MTMNETSAIPARQRENQFFEIGVVGRKTGFTVPRDVKKGDDGFEDMDAYFLSDGSIHLDE
In the case of B4, the binding result in test [6] is given as “binds”.

B5: Mis12–Nnf1 complex with Mis12 R66A (complex, S. pombe)
chain 1: MLVELLEFTPLSFIDDVINITNQLLYKGVNGVDKAFSQTRFAKKAPQEIEEGLHKFEVLFESVVDAYYDGFEVYTLRNIFSYPPELKGYMRTFGKDVDYSITTEQDAAMDQAIQEAAEKLVVKMQLRRDLRMRLSRKREKKTEIEKHLERISFLNKVPENWQVTLPETTDFLLDQLGNLQHAVKRVVEASPTVHSREVDERITYLEKGYERLSNPIDQQKDFWSHHLSKLESTANTETANNIHKLLLSSEKDVGHTDEP
chain 2: MTSRKEQLDAFLSRTLSETIAHIPLEKFAQCFPSMKKGKVIAVIHQQLIEFFEKSCKQEYANLIKERDLNKKLDMLDECIHDAEFRKLHGESEVDISNKQPQEILKAHLYSHKRELLDKLNQDLLDIDKENEGLSTQIAGEEKATEDCISRMQSLIQKLEKTVYGMNEKNLAKEAHDTLNDLLPYIQNPSSTWTNALNEQGNIER
As to B5, in test [5], the binding result is recorded as “binds”.

B6: GST-Cnp3(1–155)^T28A (domain or fragment, S. pombe, UniProt Q9USR9 1-155, looked up)
chain: MTMNETSAIPARQRENQFFEIGVVGRKAGFTVPRDVKKGDDGFEDMDAYFLSDGSIHLDEDNGDIEQDMPPVTRLQPTSPMAVNAASDEASHASSSDSSDKNPDIPSSPLLMNSRALRASRGSSGPLIVPIDHSAFQAEDEGTADKTKVDGNKLS
In the case of B6, in test [6], the binding result is “binds”.

B7: GST-Cnp3(1–155) (domain or fragment, S. pombe, UniProt Q9USR9 1-155, looked up)
chain: MTMNETSAIPARQRENQFFEIGVVGRKTGFTVPRDVKKGDDGFEDMDAYFLSDGSIHLDEDNGDIEQDMPPVTRLQPTSPMAVNAASDEASHASSSDSSDKNPDIPSSPLLMNSRALRASRGSSGPLIVPIDHSAFQAEDEGTADKTKVDGNKLS
For the molecule B7, the binding result in test [6] is “binds”. As to RKTGFTVPRDVKKGDDGFEDMDAYF (domain or fragment, S. pombe, UniProt Q9USR9 26-50, looked up) [GST-Cnp3(26–50)], the binding result in test [6] was “binds”.

B8: Mis12–Nnf1 complex with Mis12 Y67A (complex, S. pombe)
chain 1: MLVELLEFTPLSFIDDVINITNQLLYKGVNGVDKAFSQTRFAKKAPQEIEEGLHKFEVLFESVVDRAYDGFEVYTLRNIFSYPPELKGYMRTFGKDVDYSITTEQDAAMDQAIQEAAEKLVVKMQLRRDLRMRLSRKREKKTEIEKHLERISFLNKVPENWQVTLPETTDFLLDQLGNLQHAVKRVVEASPTVHSREVDERITYLEKGYERLSNPIDQQKDFWSHHLSKLESTANTETANNIHKLLLSSEKDVGHTDEP
chain 2: MTSRKEQLDAFLSRTLSETIAHIPLEKFAQCFPSMKKGKVIAVIHQQLIEFFEKSCKQEYANLIKERDLNKKLDMLDECIHDAEFRKLHGESEVDISNKQPQEILKAHLYSHKRELLDKLNQDLLDIDKENEGLSTQIAGEEKATEDCISRMQSLIQKLEKTVYGMNEKNLAKEAHDTLNDLLPYIQNPSSTWTNALNEQGNIER
For the molecule B8, the binding result in test [5] is given as “binds”.
